Interaction score data for four molecules are collected here from article PMC10397247.

What all share (experiment): two-hybrid library CCNG1;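 also: natural log of median RNA to DNA barcode read ratio; higher means stronger binding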
Experiment [1] deals with T1, 4H796-bN.
T1 chain: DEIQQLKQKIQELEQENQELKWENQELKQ

In experiment [2] the target is T2, 4H2760-bN.
T2 chain: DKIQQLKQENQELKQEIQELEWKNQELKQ

Experiment [3] deals with T3, 4H56-bN.
T3 chain: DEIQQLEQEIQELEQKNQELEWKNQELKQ

In experiment [4] the target is T4, 4H2585-bN.
T4 chain: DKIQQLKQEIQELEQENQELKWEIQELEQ

Experiment [5] concerns the target T5, 4H949-bN.
T5 chain: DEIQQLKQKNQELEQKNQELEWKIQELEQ

The target of experiment [6] is T6, 4H264-bN.
T6 chain: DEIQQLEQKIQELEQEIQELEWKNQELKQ

Experiment [7] has as its target T7, 4H2859-bN.
T7 chain: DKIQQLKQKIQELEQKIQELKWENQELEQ

Experiment [8] addresses T8, 4H3364-bN.
T8 chain: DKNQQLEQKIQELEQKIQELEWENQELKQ

Experiment [9] concerns the target T9, 4H3041-bN.
T9 chain: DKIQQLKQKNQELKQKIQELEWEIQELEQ

For experiment [10], the target named is T10, 4H2931-bN.
T10 chain: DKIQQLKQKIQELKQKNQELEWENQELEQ

Experiment [11] has as its target T11, 4H235-bN.
T11 chain: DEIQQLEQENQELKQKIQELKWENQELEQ

Experiment [12] has as its target T12, 4H2518-bN.
T12 chain: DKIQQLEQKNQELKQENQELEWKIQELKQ

In experiment [13] the target is T13, 4H932-bN.
T13 chain: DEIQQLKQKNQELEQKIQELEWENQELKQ

Experiment [14] addresses T14, 4H2444-bN.
T14 chain: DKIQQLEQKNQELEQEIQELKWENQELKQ

In experiment [15] the target is T15, 4H3381-bN.
T15 chain: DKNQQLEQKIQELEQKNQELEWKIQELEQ

For experiment [16], the target named is T16, 4H2233-bN.
T16 chain: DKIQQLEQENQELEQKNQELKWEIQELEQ

Experiment [17] deals with T17, 4H730-bN.
T17 chain: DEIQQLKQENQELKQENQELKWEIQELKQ

Experiment [18] has as its target T18, 4H349-bN.
T18 chain: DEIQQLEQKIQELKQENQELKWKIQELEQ

In experiment [19] the target is T19, 4H3297-bN.
T19 chain: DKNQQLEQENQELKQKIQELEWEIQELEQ

Experiment [20] deals with T20, 4H2253-bN.
T20 chain: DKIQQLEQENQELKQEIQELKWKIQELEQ

The target of experiment [21] is T21, 4H2162-bN.
T21 chain: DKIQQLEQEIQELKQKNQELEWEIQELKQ

The target in experiment [22] is T22, 4H2444-bA.
T22 chain: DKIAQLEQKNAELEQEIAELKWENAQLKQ

In experiment [23] the target is T23, O4-bS.
T23 chain: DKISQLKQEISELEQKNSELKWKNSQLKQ

For experiment [24], the target named is T24, O16-bS.
T24 chain: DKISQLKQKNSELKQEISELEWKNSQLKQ

Experiment [25] has as its target T25, O12-bS.
T25 chain: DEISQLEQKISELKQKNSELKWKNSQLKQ

The target in experiment [26] is T26, O8-bS.
T26 chain: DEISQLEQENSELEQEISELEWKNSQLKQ

Experiment [27] concerns the target T27, O5-bS.
T27 chain: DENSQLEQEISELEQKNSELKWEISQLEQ

Experiment [28] addresses T28, O2-bS.
T28 chain: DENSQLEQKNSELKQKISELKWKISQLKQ

Experiment [29] addresses T29, O15-bS.
T29 chain: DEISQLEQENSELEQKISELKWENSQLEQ

Experiment [30] addresses T30, O9-bS.
T30 chain: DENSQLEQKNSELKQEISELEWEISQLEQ

In experiment [31] the target is T31, O14-bS.
T31 chain: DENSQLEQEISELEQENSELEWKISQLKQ

For experiment [32], the target named is T32, O3-bS.
T32 chain: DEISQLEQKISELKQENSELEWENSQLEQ

For experiment [33], the target named is T33, O6-bS.
T33 chain: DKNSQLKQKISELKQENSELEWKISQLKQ

The target in experiment [34] is T34, O7-bS.
T34 chain: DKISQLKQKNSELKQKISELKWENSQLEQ

Experiment [35] addresses T35, O13-bS.
T35 chain: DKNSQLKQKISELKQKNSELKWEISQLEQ

Experiment [36] addresses T36, 4H3907-bH.
T36 chain: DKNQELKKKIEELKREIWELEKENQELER

The target of experiment [37] is T37, 4H4038-bH.
T37 chain: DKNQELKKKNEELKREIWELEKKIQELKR

In experiment [38] the target is T38, 4H3592-bH.
T38 chain: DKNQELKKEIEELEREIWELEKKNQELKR

In experiment [39] the target is T39, 4H1406-bH.
T39 chain: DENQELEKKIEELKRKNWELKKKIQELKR

Experiment [40] addresses T40, 4H3601-bH.
T40 chain: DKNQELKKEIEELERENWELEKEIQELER

For DKIQQLEQENQELEQKNQELKWEIQELEQ [4H2233-bN], the interaction score in experiment [1] was -0.624; in experiment [2], -0.863; in experiment [3] it was -0.577; in [4] it was -2.3; in experiment [5], -1.36; in [6], -0.163. The interaction score in experiment [7] is -0.431; in [8], -0.324; in [9] it was -1.98; in [10] it was -0.485; in experiment [11] it was -0.762; in experiment [12], 1.97. Also, the interaction score in [13] is -1.19; in experiment [14], -0.713; in experiment [15], -0.889; in experiment [16], -1.12; in experiment [17] it was -0.539; in experiment [18], -0.452. In addition, the values for the interaction score in experiment [19] and in experiment [20] were -1.34 and -0.322, respectively.

With DKIQQLEQEIQELKQKNQELEWEIQELKQ [4H2162-bN], the interaction score in experiment [1] is -0.418; in experiment [2] it was -0.495; in [3], -0.33; in experiment [4], 0.615; in experiment [5] it was -1.05; in experiment [6], -0.799. The interaction score in experiment [7] is 0.571; in experiment [8], -0.416; in experiment [9], 1.18; in experiment [21], 1.61; in [10] it was -1.12; in [11] it was -0.0614. Moreover, the interaction score in experiment [12] was 0.614; in experiment [13], -0.305; in experiment [14] it was -1.27; in [15] it was -0.622; in [16] it was -0.887; in experiment [17], -0.649. The interaction score is -0.359 in experiment [22], 0.391 in experiment [18], -0.173 in experiment [19] and -0.654 in [20].

With DEISQLEQKISELKQKNSELKWKNSQLKQ [O12-bS], the interaction score in [23] was -0.445; in experiment [24] it was -1.04; in experiment [25], -0.402; in [26], -0.862; in experiment [27], -1.66; in experiment [28] it was -0.108. For the same molecule, the interaction score in [29] was -0.445; in experiment [30], -0.617; in experiment [31] it was -2.32; in experiment [32], 0.395; in experiment [33] it was -0.702; in experiment [34], -0.726. Moreover, the interaction score in experiment [35] was -2.21.

On to DENQELEKKIEELKRKNWELKKKIQELKR [4H1406-bH], for which the interaction score in [36] was 1.11; in [37], -0.136; in [38], 1.08; in experiment [39] it was -0.652; in experiment [40] it was 0.0362.
